# Experimental data as given in US20240116985A1 (published 2024).
# Starred links: 1 amine or outer side, 2 acyl side, 3 side chain; linkers in the order of their positions; H or OH if unused. Positions of bridges follow the written chain, without caps; N, C: chain ends. Non-standard residues stand in square brackets, D forms with d. Primed or numbered codes have the meaning given here. *: point of attachment. PyrS2″ = (S)-3-amino-1-((pent-4-en-1-yloxy)carbonyl)pyrrolidine-3-carboxylic acid (stapling residue), C=CCCCOC(=O)N1CC[C@@](N[*:1])(C(=O)[*:2])C1; PyrS3″ = (S)-3-amino-1-((hex-5-en-1-yloxy)carbonyl)pyrrolidine-3-carboxylic acid (stapling residue), C=CCCCCOC(=O)N1CC[C@@](N[*:1])(C(=O)[*:2])C1; B5(17) = 2,2-bis(4-pentenyl)glycine = 2-amino-2-(pent-4-en-1-yl)hept-6-enoic acid, stitching residue, C=CCCCC(CCCC=C)(N[*:1])C(=O)[*:2]; B5(4) = 2,2-bis(4-pentenyl)glycine = 2-amino-2-(pent-4-en-1-yl)hept-6-enoic acid (stitching residue), C=CCCCC(CCCC=C)(N[*:1])C(=O)[*:2]; TfeGA = (S)-2-amino-3-((carboxymethyl)(2,2,2-trifluoroethyl)amino)propanoic acid, O=C([C@H](CN(CC(=O)[*:3])CC(F)(F)F)N[*:1])[*:2]; PyrS4 = (S)-3-amino-1-((hept-6-en-1-yloxy)carbonyl)pyrrolidine-3-carboxylic acid, C=CCCCCCOC(=O)N1CC[C@@](N[*:1])(C(=O)[*:2])C1; PyrS2 = (S)-3-amino-1-((pent-4-en-1-yloxy)carbonyl)pyrrolidine-3-carboxylic acid, C=CCCCOC(=O)N1CC[C@@](N[*:1])(C(=O)[*:2])C1; B5(22) = 2-amino-2-(pent-4-en-1-yl)hept-6-enoic acid (two alkene side chains), C=CCCCC(CCCC=C)(N[*:1])C(=O)[*:2]; B5(3) = 2,2-bis(4-pentenyl)glycine (stitching residue), C=CCCCC(CCCC=C)(N[*:1])C(=O)[*:2]; B3 = 2-allyl-2-aminopent-4-enoic acid, C=CCC(CC=C)(N[*:1])C(=O)[*:2]; 2F3MeF = Cc1cccc(C[C@H](N[*:1])C(=O)[*:2])c1F; Phe(2-CONH2) = NC(=O)c1ccccc1C[C@H](N)C(=O)O; Phe(3-Cl) = N[C@@H](Cc1cccc(Cl)c1)C(=O)O; Phe(2-Br) = N[C@@H](Cc1ccccc1Br)C(=O)O; Phe(2-CN) = N#Cc1ccccc1C[C@H](N)C(=O)O; Phe(2-Cl) = N[C@@H](Cc1ccccc1Cl)C(=O)O; Bta = N[C@@H](Cc1csc2ccccc12)C(=O)O; Lys(iPr) = CC(C)NCCCC[C@H](N)C(=O)O; αAllylPro = C=CC[C@@]1(C(=O)O)CCCN1; tBuAla = CC(C)(C)C[C@H](N)C(=O)O; 3Thi = N[C@@H](Cc1ccsc1)C(=O)O; Cha = N[C@@H](CC1CCCCC1)C(=O)O; S8 = C=CCCCCCC[C@](C)(N)C(=O)O; hLeu = CC(C)CC[C@H](N)C(=O)O; Leu(ol) = CC(C)C[C@H](N)CO; hSer = N[C@@H](CCO)C(=O)O; Alaol = C[C@@H](CO)N*; Ms = CS(=O)(=O)*
# T1: B-cat-Halo (UniProt P35222 1-781)
# T1 sequence (looked up): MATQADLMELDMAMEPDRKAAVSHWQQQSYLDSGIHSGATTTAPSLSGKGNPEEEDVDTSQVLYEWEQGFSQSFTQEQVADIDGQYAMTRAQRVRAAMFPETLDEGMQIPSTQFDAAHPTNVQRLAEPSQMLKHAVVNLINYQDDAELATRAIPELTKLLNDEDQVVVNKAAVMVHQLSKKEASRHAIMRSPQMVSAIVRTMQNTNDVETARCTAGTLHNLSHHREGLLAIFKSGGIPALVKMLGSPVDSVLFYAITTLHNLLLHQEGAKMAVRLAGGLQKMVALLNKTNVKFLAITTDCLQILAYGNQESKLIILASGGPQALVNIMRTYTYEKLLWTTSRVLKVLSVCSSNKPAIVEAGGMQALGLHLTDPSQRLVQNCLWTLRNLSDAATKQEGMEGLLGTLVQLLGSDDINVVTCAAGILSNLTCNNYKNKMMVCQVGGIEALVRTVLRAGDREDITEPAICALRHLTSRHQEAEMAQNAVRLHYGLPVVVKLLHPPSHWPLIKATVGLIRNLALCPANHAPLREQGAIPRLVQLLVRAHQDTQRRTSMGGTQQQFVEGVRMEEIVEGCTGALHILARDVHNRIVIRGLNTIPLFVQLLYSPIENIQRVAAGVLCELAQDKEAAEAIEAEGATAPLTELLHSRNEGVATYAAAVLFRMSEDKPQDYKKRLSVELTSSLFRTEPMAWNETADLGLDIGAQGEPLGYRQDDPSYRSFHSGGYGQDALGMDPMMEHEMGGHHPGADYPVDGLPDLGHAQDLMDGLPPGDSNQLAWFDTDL
# T2: beta-catenin in DLD1 TCF/LEF reporter cells (UniProt P35222 1-781)
# T2 sequence (looked up): T1 sequence (looked up)
# T3: full-length beta-Catenin (Uniprot ID P35222) (Homo sapiens (Human), UniProt P35222 1-781)
# T3 construct: also called bCat; B-Catenin
# T3 sequence: T1 sequence (looked up)
# T4: B-cat-Halo (beta-catenin HaloTag NanoBRET construct expressed in HEK293 cells) (UniProt P35222 1-781)
# T4 sequence (looked up): T1 sequence (looked up)
# T5: B-cat-Halo (beta-catenin HaloTag NanoBRET construct expressed in HEK293 cells) (UniProt P35222 1-781)
# T5 sequence (looked up): T1 sequence (looked up)
# T6: B-cat-Halo (beta-catenin HaloTag NanoBRET construct expressed in HEK293 cells) (UniProt P35222 1-781, HaloTag NanoBRET 618 Ligand bound to the HaloTag)
# T6 sequence (looked up): T1 sequence (looked up)
# T7: B-cat-Halo (beta-catenin HaloTag fusion expressed in HEK293 cells) (UniProt P35222 1-781)
# T7 sequence (looked up): T1 sequence (looked up)
# B1: I-550 (peptide)
# peptide: XDIXDDAAFNXFXQ
# modifications: not fully specified; N-terminal Ac; PL3 at 1; B5 at 4; S8 at 11; 2OMeF at 12; BztA at 13; C-terminal NH2; staples PL3(1)-B5(4) and B5(4)-S8(11) by olefin metathesis
# Target: T1, B-cat-Halo
# Test: cell-based or functional assay
row,NanoBRET Abs IC50,Binder
1,24.3 µM,"Ac-[αAllylPro]D[tBuAla][B5(4)]DDAAFT[PyrS2″][Phe(2-Cl)][Bta]-Alaol (staple 1-4, 4-11) [I-1246]"
2,> 20 µM,"Ac-[αAllylPro]D[tBuAla][B5(4)]DDAAFT[PyrS2″][Phe(2-Cl)][Bta][Leu(ol)] (staple 1-4, 4-11) [I-1247]"

# Target: T2, beta-catenin in DLD1 TCF/LEF reporter …
# Test: cell-based or functional assay
row,DLD1 reporter assay Abs IC50,Binder
1,15.9 µM,"Ac-[αAllylPro]D[tBuAla][B5(4)]DDAAFT[PyrS2″][Phe(2-Cl)][Bta]-Alaol (staple 1-4, 4-11) [I-1246]"
2,> 20 µM,"Ac-[αAllylPro]D[tBuAla][B5(4)]DDAAFT[PyrS2″][Phe(2-Cl)][Bta][Leu(ol)] (staple 1-4, 4-11) [I-1247]"

# Target: T3, full-length beta-Catenin (Uniprot ID …)
# Test: fluorescence polarization competition; full-length beta-catenin with 5FAM-labeled TCF4 residues 10-53 probe as competitor
# Procedure: The plate was incubated protected from light for 60 minutes at 20° C. prior to read. Reads were performed on a CLARIOstar plate reader (BMG Labtech) in duplicate, and data were fitted to a 1:1 binding model with hill slope using an in-house script. All provided concentrations are final concentrations.
row,IC50,Binder
1,32 nM,"Ac-[αAllylPro]DL[B5(4)]DEAAFN[S8]F[Bta]H-NH2 (staple 1-4, 4-11) [I-543]"
2,30 nM,B1
3,35 nM,"Ac-[αAllylPro]DI[B5(17)]DEAAFN[S8]F[Bta]Q-NH2 (staple 1-4, 4-11) [I-557]"

# Target: T4, B-cat-Halo (beta-catenin HaloTag …)
# Test: cell-based or functional assay
row,NanoBRET Abs IC50,Binder
1,> 20 µM,"Ac-[αAllylPro]N[Cha][B5(4)]DQ[Lys(iPr)]AFN[PyrS2″]F[Bta][hSer]-NH2 (staple 1-4, 4-11) [I-2167]"
2,> 20 µM,"Ac-[αAllylPro]N[Cha][B5(4)]DQ[Lys(iPr)]AFN[PyrS2″][Phe(2-CONH2)][Bta][hSer]-NH2 (staple 1-4, 4-11) [I-2168]"
3,> 20 µM,"Ac-[αAllylPro]D[tBuAla][B3]DDAAFL[PyrS3″][3Thi][Bta]Q-NH2 (staple 1-4, 4-11; also: olefin in each staple reduced to -CH2-CH2-) [I-2161]"
4,> 20 µM,"Ac-[αAllylPro]D[tBuAla][B3]DDAAFL[PyrS4][3Thi][Bta]Q-NH2 (staple 1-4, 4-11; also: earlier eluting HPLC peak (staple isomer composition)) [I-2158]"
5,> 20 µM,"Ac-[αAllylPro]D[tBuAla][B3]DDAAFL[PyrS4][3Thi][Bta]Q-NH2 (staple 1-4, 4-11; also: later eluting HPLC peak (staple isomer composition)) [I-2159]"
6,> 20 µM,"Ac-[αAllylPro]D[tBuAla][B3]DDAAFL[PyrS4][3Thi][Bta]Q-NH2 (staple 1-4, 4-11; also: olefin in each staple reduced to -CH2-CH2-) [I-2162]"

# Target: T5, B-cat-Halo (beta-catenin HaloTag …)
# Test: cell-based or functional assay
row,NanoBRET Abs IC50,Binder
1,4.6 µM,"Ac-[αAllylPro]D[tBuAla][B5(4)]DEAAFQ[S8]F[Bta]Q-NH2 (staple 1-4, 4-11) [I-544]"
2,17 µM,"Ac-[αAllylPro]DL[B5(4)]DEAAFN[S8]F[Bta]H-NH2 (staple 1-4, 4-11) [I-543]"
3,15.6 µM,"Ac-[αAllylPro]D[hLeu][B5(4)]DDAAFN[S8]F[Bta]Q-NH2 (staple 1-4, 4-11; not fully specified) [I-548]"
4,21.4 µM,B1
5,3.5 µM,"Ac-[αAllylPro]D[hLeu][B5(4)]DEAAFQ[S8]F[Bta]Q-NH2 (staple 1-4, 4-11) [I-545]"
6,12.1 µM,"Ac-[αAllylPro]D[tBuAla][B5(4)]DDAAFN[S8]F[Bta]Q-NH2 (staple 1-4, 4-11) [I-546]"
7,16.9 µM,"Ac-[αAllylPro]DI[B5(17)]DEAAFN[S8]F[Bta]Q-NH2 (staple 1-4, 4-11) [I-557]"

# Target: T6, B-cat-Halo (beta-catenin HaloTag …)
# Test: cell-based or functional assay
row,NanoBRET Abs IC50,Binder
1,22.2 µM,"Ac-[αAllylPro]D[tBuAla][B5(22)]DDAAFN[PyrS2][3Thi][Bta]QK(PropynPEG2)-NH2 (staple 1-4, 4-11) [I-936]"
2,11.4 µM,"Ac-[αAllylPro]D[tBuAla][B5(22)]D[TfeGA]AAFN[S8][Phe(2-Br)][Bta]Q-NH2 (staple 1-4, 4-11) [I-932]"
3,19.2 µM,"Ac-[αAllylPro]D[tBuAla][B5(22)]D[TfeGA]AAFN[S8][2F3MeF][Bta]Q-NH2 (staple 1-4, 4-11) [I-934]"
4,25.1 µM,"Ac-[αAllylPro]D[tBuAla][B5(22)]DDAAFN[PyrS2][3Thi][Bta]QK-NH2 (staple 1-4, 4-11) [I-939]"
5,33.1 µM,"Ac-[αAllylPro]D[tBuAla][B5(22)]DDAAFN[PyrS2][3Thi][Bta]QK(PropynPEG1)-NH2 (staple 1-4, 4-11) [I-935]"
6,13.5 µM,"Ac-[αAllylPro]D[tBuAla][B5(3)]D[TfeGA]AAFT[S8][Phe(2-Cl)][Bta]Q-NH2 (staple 1-4, 4-11) [I-930]"
7,22.2 µM,"Ac-[αAllylPro]D[tBuAla][B5(22)]D[TfeGA]AAFN[S8][Phe(3-Cl)][Bta]Q-NH2 (staple 1-4, 4-11) [I-933]"

# Target: T7, B-cat-Halo (beta-catenin HaloTag fusion …)
# Test: cell-based or functional assay
row,NanoBRET Abs IC50,Binder
1,> 20 µM,"Ms-[αAllylPro]D[tBuAla][B5(3)]D[TfeGA]AAFN[PyrS2″][3Thi][Bta]Q-NH2 (staple 1-4, 4-11) [MeSO2-PL3-Asp-Npg-B5-Asp-TfeGA-Ala-Ala-Phe-Asn-PyrS2-3Thi-BztA-Gln-NH2]"
2,17.3 µM,"Ac-[αAllylPro]N[tBuAla][B5(3)]DDAAFN[PyrS2″][3Thi][Bta]Q-NH2 (staple 1-4, 4-11) [Ac-PL3-Asn-Npg-B5-Asp-Asp-Ala-Ala-Phe-Asn-PyrS2-3Thi-BztA-Gln-NH2]"
3,> 20 µM,"Ms-[αAllylPro]D[tBuAla][B5(3)]DDAAFN[PyrS2″][3Thi][Bta]Q-NH2 (staple 1-4, 4-11) [MeSO2-PL3-Asp-Npg-B5-Asp-Asp-Ala-Ala-Phe-Asn-PyrS2-3Thi-BztA-Gln-NH2]"
4,23.4 µM,"Ac-[αAllylPro]N[tBuAla][B5(3)]DDAAFL[PyrS2″][3Thi][Bta]Q-NH2 (staple 1-4, 4-11) [Ac-PL3-Asn-Npg-B5-Asp-Asp-Ala-Ala-Phe-Leu-PyrS2-3Thi-BztA-Gln-NH2]"
5,27.8 µM,"Ac-[αAllylPro]D[tBuAla][B5(3)]NDAAFN[PyrS2″][3Thi][Bta]Q-NH2 (staple 1-4, 4-11) [Ac-PL3-Asp-Npg-B5-Asn-Asp-Ala-Ala-Phe-Asn-PyrS2-3Thi-BztA-Gln-NH2]"
6,10 µM,"Ac-[αAllylPro]D[tBuAla][B5(3)]DDAAFL[PyrS2″][Phe(2-CN)][Bta]Q-NH2 (staple 1-4, 4-11) [Ac-PL3-Asp-Npg-B5-Asp-Asp-Ala-Ala-Phe-Leu-PyrS2-2CNF-BztA-Gln-NH2]"
7,7.5 µM,"Ac-[αAllylPro]D[tBuAla][B5(3)]NDAAFL[PyrS2″][3Thi][Bta]Q-NH2 (staple 1-4, 4-11) [Ac-PL3-Asp-Npg-B5-Asn-Asp-Ala-Ala-Phe-Leu-PyrS2-3Thi-BztA-Gln-NH2]"
